Measured values taken from US20060264369, “Aptamers to von Willebrand Factor and their use as thrombotic disease therapeutics” (published 2006).

B1: AMX200.A11 (ssDNA)
DNA: CTACCTACGATCTGACTAGCTGAGTAGTTAGTAACTTTTTATTATGGTTTGGTGGGTCTGGCTTACTCTCATGTAGTTCC
B2: AMX200.H8 (ssDNA)
DNA: CTACCTACGATCTGACTAGCTGAGTAGTCAGTAATTTTTTATTATGGTTTGGTGGGCCTGGCTTACTCTCATGTAGTTCC
B3: AMX199.G5 (ssDNA)
DNA: CTACCTACGATCTGACTAGCGAAACACTAGGTTGGTTAGGATTGGTGTGTTCCCGCCCTGCTTACTCTCATGTAGTTCC
B4: AMX199.F11 (ssDNA)
DNA: CTACCTACGATCTGACTAGCGAAACACTAGGTTGGTTAGGATTGGTGTGTTTCTGCTCTGCTTACTCTCATGTAGTTCC
B5: AMX205.H11 (mixed)
DNA: GGAGCGCACTCAGCCACGGCACGACGGTGATGGATTAGCGCGGTGTCGGTGGTGTCATTTCGACCTCTCTGCTAGC
modifications: 2'-OH purines, deoxy pyrimidines
B6: AMX205.D11 (mixed)
DNA: GGAGCGCACTCAGCCACGGCACGACGGTGATGAATTAGCGCGGTGTCGGTGGTGTCATTTCGACCTCTCTGCTAGC
modifications: 2'-OH purines, deoxy pyrimidines
B7: AMX199.F8 (ssDNA)
DNA: CTACCTACGATCTGACTAGCAAGGGGATTGGCTCCGGGTCTGGCGTGCTTGGCACCTCTGGCTTACTCTCATGTAGTTCC
B8: AMX202.F6 (ssDNA)
DNA: CTACCTACGATCTGACTAGCAAGGGGATTGGCTCCGGGTCTGGCGTGCTCGGCACCTTCGGCTTACTCTCATGTAGTTCC
B9: AMX199.B6 (ssDNA)
DNA: CTACCTACGATCTGACTAGCAAGGGGATTGGCTCCGGGTCTGGCGTGCTTGGTACCTCCGGCTTACTCTCATGTAGTTCC
B10: AMX199.D8 (ssDNA)
DNA: CTACCTACGATCTGACTAGCAAGGGGATTGGCTCCGGGTCTGGCGTGCTTGGCATCTTCGGCTTACTCTCATGTAGTTCC
B11: AMX200.E10 (ssDNA)
DNA: CTACCTACGATCTGACTAGCAAGGGGATTGGCTCCGGGTCTGGCGTGCTCGGCACCTTTGGCTTACTCTCATGTAGTTCC
B12: AMX200.F9 (ssDNA)
DNA: CTACCTACGATCTGACTAGCGGAATGAGGATGCTGATGGATTGGTCAGGTCTGCTGGCTGCTTACTCTCATGTAGTTCC
B13: AMX202.H10 (ssDNA)
DNA: CTACCTACGATCTGACTAGCGGAATGAGAAGGCTGGTGGATTGCTCAGGTCTGCTGGCTGCTTACTCTCATGTAGTTCC
B14: AMX200.E8 (ssDNA)
DNA: CTACCTACGATCTGACTAGCGGAATGAGGATGCTGGTGGATTGCTCAGGTCTGTTGGCTGCTTACTCTCATGTAGTTCC
B15: AMX202.D6 (ssDNA)
DNA: CTACCTACGATCTGACTAGCGGAATGAGAAGGCTGATGGATTGCTCAGGTCTGCTGGCTGCTTACTCTCATGTAGTTCC
B16: AMX202.B8 (ssDNA)
DNA: CTACCTACGATCTGACTAGCGGAATGAGTATGCTGATGGATTGCTCAGGTCTGCTGGCTGCTTACTCTCATGTAGTTCC
B17: AMX202.A3 (ssDNA)
DNA: CTACCTACGATCTGACTAGCGGAATGAGAGCGCTGATGGATTGCTCAGGTCTGCTGGCTGCTTACTCTCATGTAGTTCC
B18: ARC1362 (mixed)
mixed: GCGUGCAGUGCCUUCGGCCGTGCGGTGCCUCCGUCACGC
modifications: 2'-OMe at 1-4,8-18,20,22,27,28,30,33,34,36-39, rest deoxy; PS between 4 and 5; 3'-idT
B19: ARC1378 (mixed)
mixed: GCGUGCAGUGCCUUCGGCCGTGCGGTGCCUCCGUCACGC
modifications: 2'-OMe at 1-4,8-18,20,22,27,28,30,33,34,36-39, rest deoxy; PS between 31 and 32; 3'-idT
B20: ARC1381 (mixed)
mixed: GCGUGCAGUGCCUUCGGCCGTGCGGTGCCUCCGUCACGC
modifications: 2'-OMe at 1-4,8-18,20,22,27,28,30,33,34,36-39, rest deoxy; PS between 35 and 36; 3'-idT
B21: ARC1369 (mixed)
mixed: GCGUGCAGUGCCUUCGGCCGTGCGGTGCCUCCGUCACGC
modifications: 2'-OMe at 1-4,8-18,20,22,27,28,30,33,34,36-39, rest deoxy; PS between 21 and 22; 3'-idT
B22: ARC1366 (mixed)
mixed: GCGUGCAGUGCCUUCGGCCGTGCGGTGCCUCCGUCACGC
modifications: 2'-OMe at 1-4,8-18,20,22,27,28,30,33,34,36-39, rest deoxy; PS between 18 and 19; 3'-idT
B23: ARC1377 (mixed)
mixed: GCGUGCAGUGCCUUCGGCCGTGCGGTGCCUCCGUCACGC
modifications: 2'-OMe at 1-4,8-18,20,22,27,28,30,33,34,36-39, rest deoxy; PS between 30 and 31; 3'-idT
B24: ARC1375 (mixed)
mixed: GCGUGCAGUGCCUUCGGCCGTGCGGTGCCUCCGUCACGC
modifications: 2'-OMe at 1-4,8-18,20,22,27,28,30,33,34,36-39, rest deoxy; PS between 28 and 29; 3'-idT
B25: ARC1372 (mixed)
mixed: GCGUGCAGUGCCUUCGGCCGTGCGGTGCCUCCGUCACGC
modifications: 2'-OMe at 1-4,8-18,20,22,27,28,30,33,34,36-39, rest deoxy; PS between 24 and 25; 3'-idT
B26: ARC1373 (mixed)
mixed: GCGUGCAGUGCCUUCGGCCGTGCGGTGCCUCCGUCACGC
modifications: 2'-OMe at 1-4,8-18,20,22,27,28,30,33,34,36-39, rest deoxy; PS between 25 and 26; 3'-idT
B27: ARC1367 (mixed)
mixed: GCGUGCAGUGCCUUCGGCCGTGCGGTGCCUCCGUCACGC
modifications: 2'-OMe at 1-4,8-18,20,22,27,28,30,33,34,36-39, rest deoxy; PS between 19 and 20; 3'-idT
B28: ARC1379 (mixed)
mixed: GCGUGCAGUGCCUUCGGCCGTGCGGTGCCUCCGUCACGC
modifications: 2'-OMe at 1-4,8-18,20,22,27,28,30,33,34,36-39, rest deoxy; PS between 32 and 33; 3'-idT
B29: ARC1376 (mixed)
mixed: GCGUGCAGUGCCUUCGGCCGTGCGGTGCCUCCGUCACGC
modifications: 2'-OMe at 1-4,8-18,20,22,27,28,30,33,34,36-39, rest deoxy; PS between 29 and 30; 3'-idT
B30: ARC1364 (mixed)
mixed: GCGUGCAGUGCCUUCGGCCGTGCGGTGCCUCCGUCACGC
modifications: 2'-OMe at 1-4,8-18,20,22,27,28,30,33,34,36-39, rest deoxy; PS between 6 and 7; 3'-idT
B31: ARC1380 (mixed)
mixed: GCGUGCAGUGCCUUCGGCCGTGCGGTGCCUCCGUCACGC
modifications: 2'-OMe at 1-4,8-18,20,22,27,28,30,33,34,36-39, rest deoxy; PS between 34 and 35; 3'-idT
B32: ARC1363 (mixed)
mixed: GCGUGCAGUGCCUUCGGCCGTGCGGTGCCUCCGUCACGC
modifications: 2'-OMe at 1-4,8-18,20,22,27,28,30,33,34,36-39, rest deoxy; PS between 5 and 6; 3'-idT
B33: ARC1371 (mixed)
mixed: GCGUGCAGUGCCUUCGGCCGTGCGGTGCCUCCGUCACGC
modifications: 2'-OMe at 1-4,8-18,20,22,27,28,30,33,34,36-39, rest deoxy; PS between 23 and 24; 3'-idT
B34: ARC1365 (mixed)
mixed: GCGUGCAGUGCCUUCGGCCGTGCGGTGCCUCCGUCACGC
modifications: 2'-OMe at 1-4,8-18,20,22,27,28,30,33,34,36-39, rest deoxy; PS between 7 and 8; 3'-idT
B35: ARC1374 (mixed)
mixed: GCGUGCAGUGCCUUCGGCCGTGCGGTGCCUCCGUCACGC
modifications: 2'-OMe at 1-4,8-18,20,22,27,28,30,33,34,36-39, rest deoxy; PS between 26 and 27; 3'-idT
B36: ARC1370 (mixed)
mixed: GCGUGCAGUGCCUUCGGCCGTGCGGTGCCUCCGUCACGC
modifications: 2'-OMe at 1-4,8-18,20,22,27,28,30,33,34,36-39, rest deoxy; PS between 22 and 23; 3'-idT
B37: AMX206.F9 (mixed)
DNA: GGAGCGCACTCAGCCACGGAGCGTCGGTGATGGATTAGCGCGGCTCCGTGGTACACATTTCGACCTCTCTGCTAGC
modifications: 2'-OH purines, deoxy pyrimidines
B38: AMX206.H9 (mixed)
DNA: GGAGCGCACTCAGCCACGGAGCGTCGGTGATGGATTAGCGCGGTTCCGTGGTACACCTTTCGACCTCTCTGCTAGC
modifications: 2'-OH purines, deoxy pyrimidines
B39: AMX203.D6 (mixed)
DNA: GGAGCGCACTCAGCCACAGTTCTGTCGGTGATGAATTAGCGCGAGAGCTGTGGGACGTTTCGACCTCTCTGCTAGC
modifications: 2'-OH purines, deoxy pyrimidines
B40: AMX205.H8 (mixed)
DNA: GGAGCGCACTCAGCCACAAACGGACGGTGATGGATTAACGCGGGTTTATGGCAAGGTTTCGACCTCTCTGCTAGC
modifications: 2'-OH purines, deoxy pyrimidines

Experiments:
[1] = biological target: von Willebrand factor A1 domain (human) (Homo sapiens, UniProt P04275 SEQ:13-246); assay: filter; 100 nM protein
Procedure: All unique clones were assayed in a 3-point dot blot screen (no protein target control, 100 nM human vWF A1 domain (SEQ ID NO 5), or 100 nM rabbit vWF A1 domain (SEQ ID NO 6). The data are presented in the third and fourth columns of Table 14 below as the ratio of the fraction of the aptamer bound to the nitrocellulose in the presence of the target protein to the fraction of aptamer bound in the absence of the target protein.

[2] = biological target: von Willebrand factor A1 domain (Homo sapiens, UniProt P04275 SEQ:13-246); assay: filter; DPBS, 0.1 mg/mL BSA, RT; conditions: label: 5'-32P
Procedure: Based on this initial screen, KD's were determined for 16 of the best vWF dependent binding sequences using the dot blot assay. […] A 6 point protein titration of human vWF A1 domain (SEQ ID NO 5) was used in the dot blot assay (333 nM, 100 nM, 33 nM, 10 nM, 3 nM, 0 nM) in 1× DPBS plus 0.1 mg/mL BSA at room temperature for 30 minutes. KD values were calculated by fitting the equation y=(max/(1+K/protein))+yint using KaleidaGraph (KaleidaGraph v. 3.51, Synergy Software).

[3] = biological target: von Willebrand factor full length (Homo sapiens, UniProt P04275 SEQ:764-2813); assay: filter; conditions: tags: Calbiochem 681300
Procedure: For KD determination, chemically synthesized aptamers were purified using denaturing polyacrylamide gel electrophoresis, 5′end labeled with γ-³²P ATP and were tested for direct binding to full length human vWF (Calbiochem Cat.# 681300, La Jolla, Calif.). An 8 point protein titration was used in the dot blot binding assay (100 nM, 30 nM, 10 nM, 3 nM, 1 nM, 300 pM, 100 pM, 0 pM)) in 1× Dulbecco's PBS containing […] (final volume of 50 uL) for 30 minutes at room temperature. KD values were calculated by fitting the equation y=(max/(1+K/protein))+yint using KaleidaGraph (KaleidaGraph v. 3.51, Synergy Software).

Row | Binder | binding signal [1] | Kd [3] [nM] | also measured
1 | B1 | 1.49 ratio to no protein | – | –
2 | B2 | 1.86 ratio to no protein | – | –
3 | B3 | 1.41 ratio to no protein | – | –
4 | B4 | 1.44 ratio to no protein | – | –
5 | B5 | – | – | Kd [2]: 144 nM
6 | B6 | – | – | Kd [2]: 124 nM
7 | B7 | 1.78 ratio to no protein | – | –
8 | B8 | 1.49 ratio to no protein | – | –
9 | B9 | 2.01 ratio to no protein | – | –
10 | B10 | 1.89 ratio to no protein | – | –
11 | B11 | 1.69 ratio to no protein | – | –
12 | B12 | 0.97 ratio to no protein | – | –
13 | B13 | 1.92 ratio to no protein | – | –
14 | B14 | 1.04 ratio to no protein | – | –
15 | B15 | 1.94 ratio to no protein | – | –
16 | B16 | 1.66 ratio to no protein | – | –
17 | B17 | 2.28 ratio to no protein | – | –
18 | B18 | – | 9.9 | –
19 | B19 | – | 9.1 | –
20 | B20 | – | 8.7 | –

Row | Binder | binding signal [1] | Kd [3] [nM] | also measured
21 | B21 | – | 16.3 | –
22 | B22 | – | 15.5 | –
23 | B23 | – | 7.4 | –
24 | B24 | – | 8.8 | –
25 | B25 | – | 23.5 | –
26 | B26 | – | 7.1 | –
27 | B27 | – | 13.9 | –
28 | B28 | – | 10.4 | –
29 | B29 | – | 4.4 | –
30 | B30 | – | 8.2 | –
31 | B31 | – | 12 | –
32 | B32 | – | 12.7 | –
33 | B33 | – | 8.4 | –
34 | B34 | – | 10.8 | –
35 | B35 | – | 9.5 | –
36 | B36 | – | 10.1 | –
37 | B37 | – | – | Kd [2]: 139 nM
38 | B38 | – | – | Kd [2]: 109 nM
39 | B39 | – | – | Kd [2]: 523 nM
40 | B40 | – | – | Kd [2]: 788 nM
